According to IntAct's records for PubMed 19955438:

B1: 1-phosphatidylinositol 4,5-bisphosphate phosphodiesterase gamma-1 (Bos taurus (Bovine)), P08487 (parent)
chain: MAGAASPCANGCGPSAPSDAEVVHLCRSLEVGTVMTLFYSKKSQRPERKTFQVKLETRQITWSRGADKIEGAIDIREIKEIRPGKTSRDFDRYQEDPAFRPDQSHCFVILYGMEFRLKTLSLQATSEDEVNMWIRGLTWLMEDTLQAATPLQIERWLRKQFYSVDRNREDRISAKDLKNMLSQVNYRVPNMRFLRERLTDLEQRTSDITYGQFAQLYRSLMYSAQKTMDLPFLEASALRAGERPELCRVSLPEFQQFLLEYQGELWAVDRLQVQEFMLSFLRDPLREIEEPYFFLDEFVTFLFSKENSIWNSQLDEVCPDTMNNPLSHYWISSSHNTYLTGDQFSSESSLEAYARCLRMGCRCIELDCWDGPDGMPVIYHGHTLTTKIKFSDVLHTIKEHAFVASEYPVILSIEDHCSIAQQRNMAQYFKKVLGDTLLTKPVDIAADGLPSPNQLKRKILIKHKKLAEGSAYEEVPTSVMYSENDISNSIKNGILYLEDPVNHEWYPHYFVLTSSKIYYSEETSSDQGNEDEEEPKEASGSTELHSNEKWFHGKLGAGRDGRHIAERLLTEYCIETGAPDGSFLVRESETFVGDYTLSFWRNGKVQHCRIHSRQDAGTPKFFLTDNLVFDSLYDLITHYQQVPLRCNEFEMRLSEPVPQTNAHESKEWYHASLTRAQAEHMLMRVPRDGAFLVRKRNEPNSYAISFRAEGKIKHCRVQQEGQTVMLGNSEFDSLVDLISYYEKHPLYRKMKLRYPINEEALEKIGTAEPDYGALYEGRNPGFYVEANPMPTFKCAVKALFDYKAQREDELTFTKSAIIQNVEKQEGGWWRGDYGGKKQLWFPSNYVEEMVSPAALEPEREHLDENSPLGDLLRGVLDVPACQIAVRPEGKNNRLFVFSISMASVAHWSLDVAADSQEELQDWVKKIREVAQTADARLTEGKMMERRKKIALELSELVVYCRPVPFDEEKIGTERACYRDMSSFPETKAEKYVNKAKGKKFLQYNRLQLSRIYPKGQRLDSSNYDPLPMWICGSQLVALNFQTPDKPMQMNQALFLAGGHCGYVLQPSVMRDEAFDPFDKSSLRGLEPCAICIEVLGARHLPKNGRGIVCPFVEIEVAGAEYDSIKQKTEFVVDNGLNPVWPAKPFHFQISNPEFAFLRFVVYEEDMFSDQNFLAQATFPVKGLKTGYRAVPLKNNYSEGLELASLLVKIDVFPAKQENGDLSPFGGASLRERSCDASGPLFHGRAREGSFEARYQQPFEDFRISQEHLADHFDGRDRRTPRRTRVNGDNRL

Variants of: B1
Conditions: with itk_mouse Itk

effect of a mutation on the interaction | Variant
decreasing interaction | R748A;K751A
decreasing interaction | K749A;R753A
disrupting interaction | E709A;K711A
